Kd data for 36 molecules are collected here from patent publication US20240182547A1 (MOGAM INSTITUTE FOR BIOMEDICAL RESEARCH, published 2024).

Where a chain is given by its changes, count along the chain named.

To fix the notation:
B1: 12F7 (antibody, V domains shown)
VH: QMQLVQSGPEVKKPGSSVKVSCKASGYTFTDYGLSWVRQAPGHGLEWMGWITAYNGDTNYAQKFQDRLSVTTDISTSTAYMELRSLKSDDTAVYYCARHVFCSGDGCYSGLGSWGQGTLVTVSS
VL: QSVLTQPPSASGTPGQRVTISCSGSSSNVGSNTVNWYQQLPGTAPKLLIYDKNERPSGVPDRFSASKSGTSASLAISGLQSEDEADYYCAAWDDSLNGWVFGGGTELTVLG
notes: IgG made in Expi293; also called #38; 38
B2: #42m (antibody, V domains shown)
VH: B1 VH with M2V, P9S, S16A
VL: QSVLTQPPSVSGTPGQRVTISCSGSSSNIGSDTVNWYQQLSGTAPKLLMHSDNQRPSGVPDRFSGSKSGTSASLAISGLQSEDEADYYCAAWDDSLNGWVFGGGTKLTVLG
notes: Germline-edited (m) form of 12C10, light chain edited; IgG; also called 12C10 (modified)
B3: 3E8 (antibody, V domains shown)
VH: B1 VH with M2V, P9S, S16A
VL: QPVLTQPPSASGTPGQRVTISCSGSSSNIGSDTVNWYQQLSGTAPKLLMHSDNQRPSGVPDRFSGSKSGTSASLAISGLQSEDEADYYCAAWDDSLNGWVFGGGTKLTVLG
notes: IgG made in Expi293; also called #43; 43
B4: #40m (antibody, V domains shown)
VH: B1 VH with M2V, P9A, S16A
VL: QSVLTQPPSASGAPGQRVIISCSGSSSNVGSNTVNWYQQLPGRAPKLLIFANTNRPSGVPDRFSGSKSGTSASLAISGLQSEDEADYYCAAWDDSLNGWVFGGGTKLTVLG
notes: Germline-edited (m) form of 4H11, light chain edited; IgG; also called 4H11 (modified)
B5: #49m (antibody, V domains shown)
VH: B1 VH with M2V, P9A, S16A
VL: QSVLTQPPSASGAPGQRVIISCSGSSSNVGSNTVNWYQQLPGTAPKLLIYDKNERPSGVPDRFSASKSGTSSSLAIGGLRSEDEADYYCATWDDNLNGWVFGGGTKLTVLG
notes: Germline-edited (m) form of 4H7, light chain edited; IgG; also called 4H7 (modified)
B6: #38m (antibody, V domains shown)
VH: B1 VH with M2V, P9A, S16A
VL: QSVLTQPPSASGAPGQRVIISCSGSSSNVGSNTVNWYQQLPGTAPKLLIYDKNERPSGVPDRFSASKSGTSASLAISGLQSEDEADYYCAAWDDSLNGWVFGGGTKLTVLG
notes: Germline-edited (m) form of 12F7, heavy and light chain edited; IgG; also called 12F7 (modified)
B7: #45m (antibody, V domains shown)
VH: B1 VH with M2V, P9S, S16A
VL: not shown
notes: Germline-edited (m) form of 4G5, light chain edited; IgG; also called 4G5 (modified)
B8: 4E9 (antibody, V domains shown)
VH: B1 VH with M2V, P9A
VL: B5 VL with A10V, I19T, A90G
notes: IgG made in Expi293; also called #48; 48
B9: 3E7 (antibody, V domains shown)
VH: B1 VH with Q1E, M2V, Q6E, P9T, S16A
VL: B5 VL with A90G
notes: IgG made in Expi293; also called #51; 51
B10: 12C10 (antibody, V domains shown)
VH: B1 VH with M2V, P9S, S16A
VL: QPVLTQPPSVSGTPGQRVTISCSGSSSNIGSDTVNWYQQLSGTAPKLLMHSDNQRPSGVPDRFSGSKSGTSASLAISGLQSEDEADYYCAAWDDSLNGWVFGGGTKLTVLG
notes: IgG made in Expi293; also called #42; 42
B11: 4H7 (antibody, V domains shown)
VH: B1 VH with M2V, P9A, S16A
VL: B5 VL with Q1S, S2Y, V3E
notes: IgG made in Expi293; also called #49; 49
B12: #50m (antibody, V domains shown)
VH: B1 VH with M2V, P9A, S16A
VL: B5 VL with A90G
notes: Germline-edited (m) form of 2F8, light chain edited; IgG; also called 2F8 (modified)
B13: 2G3 (antibody, V domains shown)
VH: B1 VH with M2V, P9A, S16A
VL: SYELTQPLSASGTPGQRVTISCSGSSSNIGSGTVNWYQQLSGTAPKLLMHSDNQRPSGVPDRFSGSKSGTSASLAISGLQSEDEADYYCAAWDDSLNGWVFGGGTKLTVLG
notes: IgG made in Expi293; also called #41; 41
B14: 4G5 (antibody, V domains shown)
VH: B1 VH with M2V, P9S, S16A
VL: not shown
notes: IgG made in Expi293; also called #45; 45
B15: #41m (antibody, V domains shown)
VH: B1 VH with M2V, P9A, S16A
VL: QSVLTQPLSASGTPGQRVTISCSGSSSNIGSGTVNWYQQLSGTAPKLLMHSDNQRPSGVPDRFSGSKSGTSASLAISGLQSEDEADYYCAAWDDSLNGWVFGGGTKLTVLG
notes: Germline-edited (m) form of 2G3, light chain edited; IgG; also called 2G3 (modified)
B16: #46m (antibody, V domains shown)
VH: B1 VH with M2V
VL: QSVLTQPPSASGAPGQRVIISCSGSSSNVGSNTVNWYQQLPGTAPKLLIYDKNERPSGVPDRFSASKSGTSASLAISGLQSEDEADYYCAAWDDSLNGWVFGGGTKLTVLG
notes: Germline-edited (m) form of 2E8, light chain edited; IgG; also called 2E8 (modified)
B17: 2E8 (antibody, V domains shown)
VH: B1 VH with M2V
VL: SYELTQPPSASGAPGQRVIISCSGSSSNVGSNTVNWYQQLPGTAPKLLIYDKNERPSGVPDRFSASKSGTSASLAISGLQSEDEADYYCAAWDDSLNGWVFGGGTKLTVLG
notes: IgG made in Expi293; also called #46; 46
B18: 4H11 (antibody, V domains shown)
VH: B1 VH with M2V, P9A, S16A
VL: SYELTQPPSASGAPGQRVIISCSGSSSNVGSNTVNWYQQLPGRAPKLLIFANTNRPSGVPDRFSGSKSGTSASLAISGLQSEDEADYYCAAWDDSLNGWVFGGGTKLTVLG
notes: IgG made in Expi293; also called #40; 40
B19: 4H1 (antibody, V domains shown)
VH: EVQLVESGGGLVKPGGSLRLSCAGSGFTFSSYTMHWVRQAPGKGLEWVSSITGGSSYVDYSASVKGRFTISRDNAQSSLYLQMNSLRAEDTAVYYCARDDYGSGSYSNWFDPWGQGTLVTVSS
VL: QSVLTQPPSVSGAPGQRVTISCTGSSSNIGAGYDVHWYQQVPGTAPKLLIFGSTNRPSGVPDRFSGSKSGASASLAITGLQADDEADYYCQPYDRSLSHVFGTGTKVTVLR
notes: IgG made in Expi293; also called #3
B20: 4G1 (antibody, V domains shown)
VH: QVTLKESGGGLVKPGGSLRLSCAASGFRLSSYGMNWVRQAPGKGLEWVSSISASSSFINYADSVRDRFTISRDNAKNSLYLQMNSLRAEDTAVYYCARDDYGSGSYSNWFDPWGQGTLVTVSS
VL: B19 VL with S25N, I29L, V41L, T44R, G52A, S53N, G79S, P92S, R111G
notes: IgG made in Expi293; also called #33; 33
B21: 2G1 (antibody, V domains shown)
VH: QVTLKESGGGLVKPGGSLRLSCAASGFTFTSYRMHWVRQAPGKGLEWVSSITGGGNYIEYADSVKGRFTISRDNAKNSLDLQMNSLRAEDTAIYYCARDMYGLGSYYSPNYFDPWGQGTLVTVSS
VL: B19 VL with V41L, A82T, D83E, P92S, R111G
notes: IgG made in Expi293; also called #21; 21
B22: 2H8 (antibody, V domains shown)
VH: B21 VH with Q1E, T3Q, K5V, V12A
VL: B19 VL with V41L, T44A, K47R, I50M, S53N, T54S, A71T, D83E, P92S, R111G
notes: IgG made in Expi293; also called #26; 26
B23: 13C2 (antibody, V domains shown)
VH: B21 VH with Q1E, T3Q, K5V
VL: B19 VL with N55D, A71N, S72T, A76T, T78S, D83E, P92S, R111G
notes: IgG made in Expi293; also called #25; 25
B24: #33m (antibody, V domains shown)
VH: B20 VH with Q1E, T3Q, K5V
VL: B19 VL with S25N, I29L, V41L, T44R, G52A, S53N, G79S, P92S, R111G
notes: Germline-edited (m) form of 4G1, heavy chain edited; IgG; also called 4G1 (modified)
B25: 4H5 (antibody, V domains shown)
VH: B19 VH
VL: B19 VL with V41L, T44A, K47R, I50M, S53N, T54S, A71T, D83E, P92S, R111G
notes: IgG made in Expi293
B26: 1E6 (antibody, V domains shown)
VH: B21 VH with Q1E, T3Q, K5V
VL: B19 VL with V41L, T44R, G52A, S53N, P92S, R111G
notes: IgG made in Expi293; also called #22; 22
B27: 4E3 (antibody, V domains shown)
VH: B19 VH
VL: B19 VL with P92S, R111G
notes: IgG made in Expi293
B28: 2E7 (antibody, V domains shown)
VH: B19 VH
VL: SYELTQPPSASGTPGQRVTISCTGSSSNIGAGYDVHWYQQLPGAAPRLLMFGNSNRPSGVPDRFSGSKSGTSASLAITGLQADDEADYYCQSYDRSLSHVFGTGTKVTVLG
notes: IgG made in Expi293; also called #6
B29: 2H11 (antibody, V domains shown)
VH: B21 VH with T3Q, K5V, E6Q, L120T
VL: QSVLTQPPSVSGAPGQRVTISCTGSSSNIGAGYDVHWYQQLPGRAPKLLIFANTNRPSGVPDRFSGSKSGASASLAISGLQAEDEAHYYCQSYDRSLNVVFGGGTELTVLG
notes: IgG made in Expi293; also called #23; 23
B30: 2F1 (antibody, V domains shown)
VH: B21 VH with Q1E, T3Q, K5V
VL: QSVLTQPPSVSGAPGQRVTISCTGSSSNIGAGYDVHWYQQVPGTAPKLLIFGSTNRPSGVPDRFSGSKSGASASLAITGLQTEDEADYYCQSYDRSLSAWVFGGGTKLTVLG
notes: IgG made in Expi293; also called #24; 24
B31: #27m (antibody, V domains shown)
VH: B21 VH with Q1E, T3Q, K5V, P114S
VL: B28 VL with S1Q, Y2S, E3V, A10V, T13A, D83E, R95S, H99Y
notes: Germline-edited (m) form of 10A6, light chain edited; IgG; also called 10A6 (modified)
B32: 2G11 (antibody, V domains shown)
VH: B21 VH with Q1E, T3Q, K5V, K13Q
VL: B28 VL with S1Q, Y2S, E3V, A10V, T13A, D83E, R95S, H99Y
notes: IgG made in Expi293; also called #29; 29
B33: 4G2 (antibody, V domains shown)
VH: B21 VH with Q1E, T3Q, K5V
VL: B28 VL with S1Q, Y2S, E3V, A10V, T13A, D83E, R95S
notes: IgG made in Expi293; also called #28; 28
B34: 10A6 (antibody, V domains shown)
VH: B21 VH with Q1E, T3Q, K5V, P114S
VL: B28 VL with A10V, T13A, D83E, R95S, H99Y
notes: IgG made in Expi293; also called #27; 27
B35: 13H9 (antibody, V domains shown)
VH: QVQLVQSGAEVKKPGASVKVSCKASGYTGYTFTDYGLSWVRQAPGHGLEWMGWITAYNGDTNYAQKFQDRLSVTTDISTSTAYMELRSLKSDDTAVYYCARHVFCSGDGCYSGLGSWGQGTLVTVSS
VL: B5 VL with Q1S, S2Y, V3E, T5I, S72A, G77S, R80Q, T91A, N95S, K106E
notes: IgG made in Expi293; also called #47; 47
B36: #47m (antibody, V domains shown)
VH: B35 VH
VL: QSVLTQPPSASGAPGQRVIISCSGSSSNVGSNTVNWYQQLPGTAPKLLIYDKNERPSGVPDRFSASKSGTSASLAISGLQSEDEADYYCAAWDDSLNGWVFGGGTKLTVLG
notes: Germline-edited (m) form of 13H9, light chain edited; IgG; also called 13H9 (modified)

In the test the target is DS-Cav1 (RSV F-protein, pre-form, in-house) (respiratory syncytial virus (RSV), UniProt P03420 26-513). Put plainly: ELISA, coated DS-Cav1, IgG titrated. Background: In an ELISA, binding on a coated surface is turned into a signal by an enzyme label.
Chain of DS-Cav1 (RSV F-protein, pre-form, in-house) (P03420 26-524): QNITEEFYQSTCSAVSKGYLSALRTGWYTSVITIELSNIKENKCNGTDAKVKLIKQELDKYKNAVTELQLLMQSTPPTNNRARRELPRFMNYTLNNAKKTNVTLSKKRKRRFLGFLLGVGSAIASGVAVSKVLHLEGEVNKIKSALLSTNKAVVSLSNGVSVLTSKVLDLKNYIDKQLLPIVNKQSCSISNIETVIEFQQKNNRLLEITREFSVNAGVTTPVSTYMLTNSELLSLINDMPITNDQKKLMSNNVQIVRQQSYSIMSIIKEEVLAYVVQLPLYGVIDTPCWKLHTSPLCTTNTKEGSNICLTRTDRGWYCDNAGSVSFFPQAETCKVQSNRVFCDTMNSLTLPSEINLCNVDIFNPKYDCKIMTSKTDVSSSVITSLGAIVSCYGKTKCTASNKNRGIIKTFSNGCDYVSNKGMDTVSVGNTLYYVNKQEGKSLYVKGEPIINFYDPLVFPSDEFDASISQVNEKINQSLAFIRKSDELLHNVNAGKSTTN
Consider B1, for which the Kd (as a rule, a measure of binding affinity in units of concentration) was about 0.27 nM.

Regarding B2, the Kd is about 1.25 nM. Then B3, with about 0.45 nM; and B4, with about 1.25 nM; and B5, with about 1.11 nM.

Turning to B6, the dissociation constant Kd was about 1.24 nM. As for B7, the equilibrium dissociation constant (Kd) is about 0.95 nM.

Regarding B8, the dissociation constant Kd was about 0.7 nM. Turning to B9, the Kd is about 0.37 nM. In the case of B10, the Kd was about 0.44 nM. In turn, B11 showed a Kd of about 2.15 nM. For B12, the dissociation constant (Kd) is about 1.08 nM. On to B13, for which the equilibrium dissociation constant (Kd) was about 2.11 nM. The molecule B14 yielded a Kd of about 0.67 nM.

B15 had a Kd of about 1.23 nM. In the case of B16 it was about 1.26 nM; in that of B17, about 0.47 nM. The molecule B18 returned a Kd of about 0.39 nM. B19 showed a Kd of about 1.73 nM. In the case of B20 it was about 0.27 nM.

On to B21, for which the Kd is about 0.55 nM. In the case of B22 it was about 0.42 nM; in that of B23, about 1.16 nM; in that of B24, about 0.97 nM. Turning to B25, the Kd was about 0.23 nM. Then B26, with about 0.34 nM; and B27, with about 0.33 nM. As for B28, the Kd was about 0.4 nM. In the case of B29 it was about 0.45 nM. The molecule B30 yielded a Kd of about 0.66 nM. Consider B31, for which the Kd is about 1.41 nM. In the case of B32, the Kd was about 0.85 nM. Molecule B33 came in with a dissociation constant (Kd) of about 1.05 nM. In turn, B34 came in with a Kd of about 1.56 nM. B35 had a dissociation constant Kd of about 0.61 nM. On to B36, for which the dissociation constant (Kd) is about 0.94 nM.
